From the Immune Epitope Database (IEDB)

Legend:
[1] = biological target: HLA-A*02:02; test: IEDB peptide-MHC binding, purified MHC/competitive/radioactivity; filed as Kd, often an IC50 or EC50 that approximates it; ≥ and ≤ were set here for values at or beyond the usual limits of such assays
[2] = biological target: HLA-A*02:03; test: as above
[3] = biological target: HLA-A*02:06; test: as above
[4] = biological target: HLA-A*69:01; test: IEDB peptide-MHC binding, purified MHC/direct/fluorescence; filed as Kd, often an IC50 or EC50 that approximates it; ≥ and ≤ were set here for values at or beyond the usual limits of such assays
[5] = biological target: HLA-B*07:02; test: as above
[6] = biological target: HLA-A*03:01; test: as above
[7] = biological target: HLA-A*02:01; test: as above
[8] = biological target: HLA-A*02:01; test: IEDB peptide-MHC binding, purified MHC/competitive/fluorescence; ≥ and ≤ were set here for values at or beyond the usual limits of such assays
[9] = biological target: HLA-B*15:01; test: IEDB peptide-MHC binding, purified MHC/direct/fluorescence; filed as Kd, often an IC50 or EC50 that approximates it; ≥ and ≤ were set here for values at or beyond the usual limits of such assays
[10] = biological target: HLA-B*58:01; test: as above
[11] = biological target: HLA-A*31:01; test: IEDB peptide-MHC binding, purified MHC/competitive/radioactivity; filed as Kd, often an IC50 or EC50 that approximates it; ≥ and ≤ were set here for values at or beyond the usual limits of such assays; settings: source organism: SARS coronavirus Tor2
[12] = biological target: HLA-A*33:01; test: as above; settings: source organism: SARS coronavirus Tor2
[13] = biological target: HLA-A*68:01; test: as above; settings: source organism: SARS coronavirus Tor2
[14] = biological target: HLA-A*11:01; test: IEDB peptide-MHC binding, purified MHC/direct/fluorescence; filed as Kd, often an IC50 or EC50 that approximates it; ≥ and ≤ were set here for values at or beyond the usual limits of such assays; settings: source organism: Francisella tularensis subsp. holarctica LVS
[15] = biological target: HLA-B*51:01; test: IEDB peptide-MHC binding, purified MHC/competitive/radioactivity; filed as Kd, often an IC50 or EC50 that approximates it; ≥ and ≤ were set here for values at or beyond the usual limits of such assays; settings: source organism: Dengue virus 2 Jamaica/1409/1983
[16] = biological target: HLA-B*53:01; test: as above; settings: source organism: Dengue virus 2 Jamaica/1409/1983
[17] = biological target: HLA-B*07:02; test: as above; settings: source organism: Dengue virus 4 Philippines/H241/1956
[18] = biological target: HLA-B*40:01; test: IEDB peptide-MHC binding, purified MHC/direct/fluorescence; filed as Kd, often an IC50 or EC50 that approximates it; ≥ and ≤ were set here for values at or beyond the usual limits of such assays; settings: source organism: Mycobacterium tuberculosis
[19] = biological target: HLA-B*35:01; test: IEDB peptide-MHC binding, purified MHC/competitive/radioactivity; filed as Kd, often an IC50 or EC50 that approximates it; ≥ and ≤ were set here for values at or beyond the usual limits of such assays
[20] = biological target: HLA-A*01:01; test: IEDB peptide-MHC binding, purified MHC/direct/fluorescence; filed as Kd, often an IC50 or EC50 that approximates it; ≥ and ≤ were set here for values at or beyond the usual limits of such assays; settings: source organism: Escherichia coli
[21] = source organism: Vaccinia virus WR
[22] = source organism: dengue virus type 4
[23] = source organism: Vibrio vulnificus
[24] = source organism: Mammarenavirus juninense
[25] = source organism: Lymphocytic choriomeningitis virus (strain Armstrong)
[26] = source organism: Lassa virus Josiah
[27] = source organism: Vibrio cholerae
[28] = source organism: Entamoeba histolytica HM-1:IMSS
[29] = source organism: SARS coronavirus Tor2

For ETIEILRNYL, the Kd [1, 21] was 474 nM, the Kd [2, 21] was 1410 nM and the Kd [3, 21] was 0.276 nM.

For CLLTDTIESA, the Kd [1, 21] was 53 nM, the Kd [2, 21] was 102 nM and the Kd [3, 21] was 92.1 nM.

In the case of TPEGIIPTL, the Kd [4, 22] is reported as 2720 nM and the Kd [5, 22] is reported as 9240 nM.

For GTHPTTTYK, the Kd ([6]; source organism: Mycobacterium tuberculosis variant bovis) was 780 nM.

In the case of GLDERFVEEL, the Kd [1, 21] is reported as 93 nM, the Kd [2, 21] is reported as 1210 nM and the Kd [3, 21] is reported as 2520 nM.

For SAWESFWRI, the Kd [7, 23] was 12.8 nM and the Kd [4, 23] was 1.4 nM.

WTLDANINA showed an IC50 ([8]; source organism: Sudan ebolavirus) of 3850 nM.

VVYRGTTTY was tested, and the Kd ([9]; source organism: SARS-CoV1) was 110 nM, the Kd ([10]; source organism: SARS-CoV1) was 281 nM and the Kd [11] was 9740 nM. For the same sequence, the Kd [12] was no less than 77700 nM and the Kd [13] was 8790 nM.

RIYCQENPY gave a Kd ([6]; source organism: Francisella tularensis subsp. holarctica LVS) of 91.7 nM and a Kd [14] of 26.3 nM.

VSFSMVGLF showed a Kd [10, 24] of 119 nM.

With AINKCVDIFT the Kd [1, 21] was no less than 25300 nM, the Kd [2, 21] was no less than 26400 nM and the Kd [3, 21] was no less than 38600 nM.

FPQSNAPIMD gave a Kd [15] of 4160 nM and a Kd [16] of 113 nM.

Sequence NPTTLIASL has a Kd [17] of 210 nM.

With LSAEELMSL the Kd [1, 25] was 64.5 nM, the Kd [2, 25] was 705 nM and the Kd [3, 25] was 65.9 nM.

LLENKSLTIL gave a Kd [1, 21] of 185 nM, a Kd [2, 21] of 541 nM and a Kd [3, 21] of 7430 nM.

In the case of YCSNIKLQVV, the Kd [1, 26] is reported as 1230 nM, the Kd [2, 26] is reported as 801 nM and the Kd [3, 26] is reported as 7120 nM.

In the case of RIASILSLET, the Kd [1, 21] is reported as 583 nM, the Kd [2, 21] is reported as 449 nM and the Kd [3, 21] is reported as 751 nM.

Sequence GANGSTAEQL has a Kd [1, 21] of 7280 nM, a Kd [2, 21] of no less than 45300 nM and a Kd [3, 21] of no less than 55400 nM.

Work on QLQCHQIAI yielded a Kd [7, 27] of 92 nM, a Kd [6, 27] of 13200 nM and a Kd [4, 27] of 5310 nM. The Kd [5, 27] was 6710 nM and the Kd [9, 27] was 7260 nM.

Sequence NTVGMSIVCI has a Kd [1, 21] of 3020 nM, a Kd [2, 21] of 1540 nM and a Kd [3, 21] of 1210 nM.

With AVYFKAKWLT the Kd [1, 21] was no less than 27200 nM, the Kd [2, 21] was 8930 nM and the Kd [3, 21] was 8710 nM.

Work on MIGNYFSGVL yielded a Kd [1, 21] of 712 nM, a Kd [2, 21] of 761 nM and a Kd [3, 21] of 1310 nM.

Work on REAKATRPL yielded a Kd [18] of 80.8 nM.

NISLPLYTV gave a Kd [7, 28] of 47.5 nM and a Kd [4, 28] of 8.5 nM.

AFIHIPGDT gave an IC50 ([8]; source organism: Variola virus) of 24800 nM.

For LAIKNYYRKT, the Kd [1, 21] was no less than 36800 nM, the Kd [2, 21] was 7180 nM and the Kd [3, 21] was no less than 69800 nM.

Sequence NVFISPASI has a Kd [1, 21] of 202 nM, a Kd [2, 21] of 0.727 nM and a Kd [3, 21] of 660 nM.

LPVWLSYKVA gave a Kd ([19]; source organism: Dengue virus 1 Brazil/97-11/1997) of 864 nM.

NITPDDGLGL was tested, and the Kd [1, 21] was 1910 nM, the Kd [2, 21] was 1290 nM and the Kd [3, 21] was 3450 nM.

Sequence MAICSAVPT has a Kd ([19]; source organism: Dengue virus 4 Philippines/H241/1956) of 543 nM.

VIRHVDGKI gave a Kd [1, 21] of 8550 nM, a Kd [2, 21] of 978 nM and a Kd [3, 21] of 9270 nM.

For CNYTKFWYV, the Kd [1, 24] was 1940 nM, the Kd [2, 24] was 794 nM and the Kd [3, 24] was 34.5 nM.

KTRLFRSPQV gave a Kd [1, 21] of 9270 nM, a Kd [2, 21] of 984 nM and a Kd [3, 21] of 433 nM.

With GLSDRVVFV the Kd [1, 29] was 1.04 nM, the Kd [2, 29] was 1.07 nM and the Kd [3, 29] was 68.6 nM.

With ISEPMFHQG the Kd [20] was 7130 nM and the Kd ([4]; source organism: Escherichia coli) was 1690 nM.

For IVNNFITKEI, the Kd [1, 21] was 1470 nM, the Kd [2, 21] was 192 nM and the Kd [3, 21] was 14200 nM.

Sequence YAGTIKESLL has a Kd [1, 21] of 1020 nM, a Kd [2, 21] of 4040 nM and a Kd [3, 21] of 1770 nM.

IVAALVFLI showed a Kd [1, 29] of 0.138 nM, a Kd [2, 29] of 15.5 nM and a Kd [3, 29] of 1.81 nM.
